Laboratory results from the supplement of paper PMC12042874.
± gives the uncertainty stated by the source.

Experiment: amyloid nucleation score (Sup35N fusion, yeast selection) (log enrichment); library NNK3; higher = more nucleation; inactive = no reads after selection
In short: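 The nucleation score is the DiMSum log enrichment of output over input reads, centred on the mode score of non-aggregating sequences. Only sequences with 100 or more input reads were scored, using Illumina sequencing of input and output plasmid inserts. Psi-negative yeast expressing Sup35N fused to peptides of 20 random codons were induced 24 hours with 100 μM copper sulfate and grown 7 days at 30°C on medium lacking adenine and uracil.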

Substance | amyloid nucleation score
FFLCDRKNRRST | inactive
FFSCYVESNSVMGKDFCRVM | 0.788 ± 0.12
FFVNYHVGIFMSIYQIFVYV | inactive
FGFRCWLFWS | inactive
FGFYKWPTTCLGSVSSLSSM | 0.749 ± 0.11
FGGLRTATL | inactive
FGIWRLCRFFA | inactive
FGMGKRLSNENMPLVSCTGL | inactive
FGQYSGVSCNWTPGCPAPCF | inactive
FGRFVMERLTS | inactive
FGSVVGRCSTSFVYRLINIR | 0.65 ± 0.17
FGSYFSLKVFYNYF | 2.38 ± 0.055
FGVSIVRHQVLLCGLSCISL | 1.85 ± 0.091
FGVVH | inactive
FHLKKHWGKHGYFFMEDRRT | inactive
FHMFMTYTWYPVI | inactive
FHPFFIGVGSFLGSLHEFQS | inactive
FHRTEGCECVASLKVARGVV | 0.223 ± 0.31
FHSGMHCMKDFDCLPGFVGR | inactive
FHTYIELLRALIAIRQGGSF | inactive
FHYVCFTFDSKFVGKLSYGS | 1.61 ± 0.1
FIDMN | inactive
FIFSTLHNVLHGSNRVNSVW | inactive
FIGVKQTRKLNTFCLGSWLM | -0.061 ± 0.66

Substance | amyloid nucleation score
FIIITKAFYRGTKMGGNTYS | -0.427 ± 0.73
FIIPSSMTHMARKNIVRAW | inactive
FILFRYVTNALRKSAWVRLC | inactive
FILLGRNGLG | inactive
FILYMCKCS | inactive
FIMLQSPTNSSQILMPTQFT | inactive
FIMRSSSC | inactive
FIRIHRNAI | inactive
FISHSCYGWILRGCQTVGFW | -0.552 ± 0.98
FISRRIRNVILWCYFM | inactive
FITVNRQNGK | inactive
FIWIIMVGNNVPNT | 2.06 ± 0.093
FIWIT | inactive
FIWQMGNNPVVVAFSCRAGW | 2.56 ± 0.076
FIYSGYTSVNKILGFYNHDS | 0.95 ± 0.16
FIYSHTVWFRNYLHMYPILF | inactive
FKITEYVSFNGTRPDNISMN | -0.082 ± 0.85
FKLVGCGCNVMTFVSYLVNQ | 1.98 ± 0.083
FKLWWIKCCMHPLMMHVAWM | -0.036 ± 0.27
FKNRYFHLPCSDLLYHSLGR | inactive
FKQMDTLTHISFSKAIMPSF | inactive
FKRWLSSWFKLA | inactive
FKTFSFFKLFCTYCYYTLTE | inactive
FKVLSFKSENSSYYVPFGLD | inactive

Substance | amyloid nucleation score
FKYLVIVNNWG | 2.82 ± 0.071
FLCTLSMWYCIDRTFMYMCS | -0.053 ± 0.32
FLDFTWMKHGTLALPQAAHQ | inactive
FLDGFVQPISESINLLMFCT | inactive
FLFIGSFCGCSVSRPDRYYS | 2.57 ± 0.08
FLFYLFFFSGRMDR | 0.179 ± 0.33
FLGFDRVFYGRRISPSFVRT | inactive
FLGTVLLGWFIAMMSRCLGR | 0.048 ± 0.45
FLHDFSILIGMICNQIGITL | 1.24 ± 0.17
FLIVGFPGNKLGC | 0.848 ± 0.1
FLIYAQALLF | inactive
FLLEYYVCMFAVWSIWGMGH | 0.317 ± 0.75
FLLFFILPSVRDLASHKSRG | 0.099 ± 0.19
FLLTYVNIRGMQP | 1.49 ± 0.099
FLMCVNFVCCIIMCCGTIWG | inactive
FLMCWVLIVV | inactive
FLMNDSCDRTIWFNVFLSNS | 0.7 ± 0.18
FLNCFSC | 2.69 ± 0.054
FLNLIYNLGRLWFQQLTRFK | inactive
FLNTSPYCGTL | inactive
FLRLKFRAYDP | 1.01 ± 0.11
FLRWFWRD | 0.785 ± 0.18
FLSLC | inactive
FLSLWLCSRCVSKSCGGFML | inactive

Substance | amyloid nucleation score
FLTSVGIAYAKFRLGYSCLL | inactive
FLVLVGIGIGMYLFVNHYVD | 1.64 ± 0.088
FLVNFGKDFEIWREHYGVTI | -0.484 ± 1.4
FLVVVSF | inactive
FLWGICWYRMVMKAHFDFIC | inactive
FLYMSMPSLSMVQICYSQRG | 1.99 ± 0.07
FMCLFMNHYLKFGTSFPGRG | 0.974 ± 0.14
FMDFRSYITGHNWIHAAWPA | inactive
FMPTVQVRLQC | inactive
FMTSEWRMGMYGVSGRITWE | 0.73 ± 0.24
FMVLRYCVILWGFWEYMSSA | inactive
FMYDYLAHLPGDFVNNSCRR | inactive
FMYKLSLLVCDKWLIVILPF | inactive
FMYMVNMVNVTVN | inactive
FNDNVFIGRYVRTSYCLNLR | 1.72 ± 0.064
FNDSLSLTVTRVIF | inactive
FNFTVSRVPISVMVLQKRRK | 1.18 ± 0.086
FNFVLALI | 1.69 ± 0.084
FNFVYV | 0.062 ± 0.88
FNITGRVSYSIVTLCFMQCK | 2.75 ± 0.069
FNLLHTRMTLLYSNIRNRYN | 0.358 ± 0.62
FNNFRFTGQHR | inactive
FNRGKRCNSIRSLVPCNSPL | inactive
FNRGLLNHFFGH | inactive

Substance | amyloid nucleation score
FNSDKMAPLTGLCEVVRFGR | inactive
FNSNFHHSVNSVNGITFSEA | inactive
FNSYHTANRYI | inactive
FNVLSDPACVRPGLVVRVSE | inactive
FNVSHLVRYSVCYFCGMIEL | 1.89 ± 0.063
FNVSTGCRWSWAPDHSPCQE | -0.058 ± 0.66
FNYRFSLSHKNGFTRVNYGL | inactive
FPGSS | inactive
FPHSSGCYDAVTWSSWNGGH | inactive
FPMCFSFHLIGQ | inactive
FPMSIESDSLNSGRGLRPWG | inactive
FPRNVPG | inactive
FPRSSRIFSCCSRIRLCAFV | inactive
FPSSMGRQYIGVCKYLSDPP | inactive
FPYLRRTMGVLIYQCVPIRG | inactive
FPYNGALSFCIWYRVASRVY | inactive
FQKGLRQDYQVFLFDSNRFW | inactive
FQLWVKRTYNAEGNLYSPDD | inactive
FRCPMFFNCSSVLTSHVSLA | 1.34 ± 0.16
FRFSR | inactive
FRGCYRFELLSDTCISRELV | inactive
FRGEMLFKVQF | 0.275 ± 0.27
FRHCGCHTFLCIIVTDRHHY | 1.85 ± 0.061
FRHCWRR | -0.532 ± 1.1

Substance | amyloid nucleation score
FRMTPHIGALSNRLHVTTWL | -0.226 ± 0.7
FRNRCVNDD | inactive
FRNVGMLGSNLGFGINNDIN | inactive
FRRFSGTGFIMSEIAYFFSI | inactive
FRSEVGVNFNRTLWRYNRVY | inactive
FRSFIGKNHEKRSVILCILE | inactive
FRSWPS | inactive
FRTTLKTR | inactive
FRVNKYNISFLVRQSGIWLA | inactive
FRVYQNIDTERDSRTSPKES | inactive
FRYPYNPVIREFCTCSSWFL | 1.73 ± 0.069
FRYRNSSTEVCWKRSWLTLG | inactive
FRYVIVYKRSSFGYRKCIEC | inactive
FSCIPCG | inactive
FSCPRVSIFGLCSNCMYQWW | 2.43 ± 0.057
FSDNSSRSGSNSEWYGS | inactive
FSDVGLWFGAYRKVVVVKLF | inactive
FSFRTMYVFDPLYNKYRIFM | 0.125 ± 0.6
FSHFMSSTYYCC | 1.73 ± 0.12
FSHVV | inactive
FSIDTNGSCYRIDARHVK | inactive
FSIVMTRFSFGSRVGSFYNF | 0.151 ± 0.44
FSMCCTWYFKFHL | 0.596 ± 0.14
FSNQSNFNMELLLKDRDSTP | inactive

Substance | amyloid nucleation score
FSPMYFNWMIGVVCSGIVGN | -0.349 ± 0.8
FSPYYLPLYVLVVRIKIQLG | inactive
FSSFG | inactive
FSSRVRTMPLVGVM | inactive
FSTWEELLTSHLKCFTAGWG | -0.458 ± 1.4
FSVFN | inactive
FSVVLYKRWWRTRMATGLLK | inactive
FSYSFVTRDMATYGRTLVKS | inactive
FTFLMDRY | -0.083 ± 0.34
FTGFN | inactive
FTLKRLPGYSHRSLEWLPPY | inactive
FTNLYMPTRERHCRGSHMW | inactive
FTNYRSRGNMVRGGPCRPSY | inactive
FTQYFLTRCDYYVEYYMLDR | inactive
FTSFSYYMVCFCADIIKQG | 1.97 ± 0.065
FTSYS | inactive
FTVCFVLPIAITPMMWDIWY | inactive
FTVTCPGREANIYIFFRGGR | 1.37 ± 0.13
FTYWLFSLDR | inactive
